{"source": "patent US5882644A", "about": "“Monoclonal antibodies specific for the platelet derived growth factor β receptor and methods of use thereof” (Protein Design Labs, Inc., priority 1996, dated 1999)", "molecules": {"B1": {"name": "muM4TS.11: murine monoclonal antibody to PDGF-R β, variable regions SEQ ID NOS:10 and 12; epitope in fourth extracellular domain (antibody, V domains shown)", "VL": "METETLLLWVLLLWVPGSTGDIVLTQSPPSLAVSLGQRATISCRASESVDSYGNSFMHWYQQKPGQPPKLLIYRASNLESGIPARFSGGGSRTDFTLTINPVEADDVATYYCQQSNEDPPTFGGGTKLEIK", "VH": "MERHWIFLFLFSVTAGVHSQVQLQQSGAEVAKPGASVKMSCKASGYTFTNCWMHWVKQRPGQGLEWIGYINPTTGYSEYNQNFKDKATLTADKSSNTAYIQLSSLTSEDSAVYYCTSNYGHYDWFANWGQGTLVT"}}, "key": {"[1]": {"system": "PDGF-R β expressed on the cell membrane", "test": "Flow cytometry binding to CHO PDGF-R β transfectant cells", "design": "species or system human", "conditions": "0.1-1 μg/ml antibody; CHO PDGF-R β transfectants vs untransfected CHO", "protocol": "The cells were washed once in cold PBS and resuspended in 50 μl of PBS containing 10 μg/ml FITC-conjugated goat anti-mouse IgG and incubated for 30 min. After another wash, the cells were fixed by resuspension in 0.25 ml of paraformaldehyde in PBS, and analyzed for fluorescence by flow cytometry on a FACScan (Becton Dickinson)."}, "[2]": {"system": "intima of left common carotid artery after balloon injury", "test": "Rat carotid balloon injury model, intimal thickening", "assay_type": "in vivo", "conditions": "21 days after injury", "from_the_text": "To perform the vascular injury, under sterile conditions and after general anesthesia the left common carotid arteries of S-D rats were exposed. Anesthesia was induced with ketamine and xilaxine by IP injection. Additional anesthesia was given at half a dose every forty-five minutes. Through a midline neck incision the left common, external and internal carotid arteries were exposed. A 2F Fogarty balloon catheter was introduced in the left external carotid artery. The balloon was inflated sufficiently to generate slight resistance and withdrawn 3 times to consistently produce endothelial denudation of the entire length of the left common carotid artery (LCCA), thus simulating vascular injury after balloon angioplasty in human patients. Upon removal of the catheter, the left external carotid artery was ligated with 3.0 silk. The skin was closed with surgical wound clips. […]\nFor measurement of intimal thickening, the left common carotid arteries were sectioned every 3 mm, from the proximal to the distal end. […] Cross-sectional areas for lumen, intima and media of the artery were determined as a mean of the 3 segments with the greatest intimal thickness. […] Differences between placebo or control groups and treated groups were analyzed for statistical significance by analysis of variance and a two-tailed, unpaired Student's t test […]"}, "[3]": {"system": "PDGF-R β deletion fusion proteins", "test": "ELISA epitope mapping with PDGF-R β deletion fusion proteins", "assay_type": "binding, human", "from_the_text": "To localize the binding sites of the M4TS antibodies on the PDGF-R, a series of PDGF-R β deletion mutants, each consisting of one or more adjacent domains of the extracellular portion of the receptor, was constructed by standard methods including PCR. The deletion constructs were each cloned into an expression plasmid (FIG. 13A) where they were fused to the constant region of the human lambda-1 immunoglobulin light chain, to facilitate detection in ELISA. The constructs were as follows (see FIG. 13B):\nThese PDGF-R β deletion fusion proteins were transiently expressed, by transfecting 10 μg of the respective expression plasmids into approximately 10^7 S194 mouse myeloma cells (ATCC TIB 19) using the DEAE-dextran method in accordance with the method described by Queen et al. (1984) Mol. Cell. Biol. 4:1042. After the transfected cells had died (4-5 days) and been removed by centrifugation, the culture supernatants containing the PDGF-R β deletion proteins were used in ELISA assays, 100 μl/well. First, the relative levels of the various PDGF-R β deletion proteins were measured in an ELISA where the plate was coated with goat anti-human lambda antibody (Tago) and the proteins detected with HRP-conjugated goat anti-human lambda antibody. […] To determine the ability of the antibodies to bind to each deletion protein, an ELISA was performed in which goat anti-human lambda antibody was used to coat the plate, followed by the cell supernatant and then 0.1 μg of the appropriate antibody, and then bound antibody detected with HRP-conjugated goat-anti-mouse Ig or goat-anti-human Ig antibody as appropriate (Tago). As a positive control, purified soluble PDGF-R β (Example 1) was coated directly on certain wells of the plate (denoted D1-5 in FIG. 14)."}, "[4]": {"system": "CHO transfectant cell line expressing PDGF-R β (CHO C4)", "test": "Inhibition of PDGF BB-induced proliferation (3H-thymidine) of CHO C4 cells", "assay_type": "cell-based, Chinese hamster", "protocol": "To determine the ability of muM4TS.11 and muM4TS.22 to block PDGF-mediated proliferation, a CHO transfectant cell line expressing PDGF-R β (CHO C4) was generated, as described above. Proliferation of this line, as measured by incorporation of ^3 H-thymidine by DNA synthesis, is stimulated several-fold by PDGF BB. The CHO PDGF-R β transfectants were plated in a 96-well tissue culture plate at about 50,000 cells/well in Ham's F-12+10% FCS and incubated for 1-2 days. The medium was removed, and the cells were washed once with serum-free medium (Ham's F-12+1 mg/ml BSA) and incubated in this media for 1-2 days to put them in a quiescent state. The appropriate amount of antibody in serum-free medium was added, and after 1-3 hours, 50 ng/ml PDGF BB was added. After overnight incubation, 1 μCi ^3 H-thymidine was added, and after a final 4 hour incubation, the cells were harvested using a PHD cell harvester (Cambridge Technology) and analyzed with a scintillation counter."}, "[5]": {"system": "human primary fibroblast cell line AG1523B", "test": "Inhibition of PDGF BB-stimulated proliferation of AG1523B fibroblasts", "assay_type": "cell-based", "conditions": "300 ng/ml PDGF BB"}}, "note": "Entries after “also recorded” stand apart in the source; their conditions may differ."}
{"molecule": "B1", "values": [{"measurement": "specific binding to membrane PDGF-R β by flow cytometry", "setting": "[1]", "value": "specifically bound to CHO PDGF-R β transfectant cells but not to untransfected CHO cells"}, {"measurement": "less thickening of the artery intima than placebo or control groups", "setting": "[2]; high dose: 4 mg bolus, then 2 mg IV every 24 hr for 4 days", "value": "approximately 60%"}, {"measurement": "less thickening of the artery intima than placebo or control groups", "setting": "[2]; low dose: 10% of the high-dose regimen", "value": "approximately 40%"}, {"measurement": "binding to deletion proteins containing only first through third domains", "setting": "[3]; 0.1 μg antibody", "value": "do not bind"}, {"measurement": "binding to protein D1-4", "setting": "[3]; 0.1 μg antibody", "value": "do bind to protein D1-4"}, {"measurement": "binding to protein D5 (fifth domain only)", "setting": "[3]; separate experiment", "value": "none of muM4TS.11 and HuM4TS.11, muM4TS.22 and HuM4TS.22 bound to it"}, {"measurement": "inhibition of PDGF-mediated proliferation compared with another antibody", "setting": "[4]", "value": "about two times more effectively than with HuM4TS.11"}, {"measurement": "inhibition of PDGF BB-induced proliferation", "setting": "[4]; 50 ng/ml PDGF BB, sufficient antibody concentration", "value": "completely inhibited proliferation of the cells induced by PDGF BB; also recorded: almost completely inhibited the stimulation of proliferation by PDGF BB"}, {"measurement": "inhibition of stimulation of proliferation by PDGF BB", "setting": "[5]", "value": "effectively inhibited the stimulation of proliferation by PDGF BB"}]}
